{"source": "the RNAGym collection of RNA variant scans (doi:10.1021/acssynbio.7b00057)", "parents": {"B1": {"name": "Pistol ribozyme (parent)", "chain": "GGGUCGUUGUUCCAUAAUCGCGUGGAUAUGGCACGCAAGUUUCUACCGGGCACCGUAAAUGUCCGACUGGAGCCGUUCGGGCGGCUAUAAACAGACCUCAGGCCCGAAGCGUGGCGGCACCUGCCGCCGGUGGUAAAAAAGAUCGGAAGAGCACACGUCU"}}}
{"variants_of": "B1", "assay": "aptazyme ON/OFF ratio, guanine; higher = stronger switching; co-transcriptional cleavage with and without guanine"}
{"variant": "GGGUCGCGCUAUAAUAAUCGCGUGGAUAUGGCACGCAAGUUUCUACCGGGCACCGUAAAUGUCCGACUGGAGCCGUUCGGGCGGCUAUAAACAGACCUCAGGCCCGAAGCGUGGCGGCACCUGCCGCCGGUGGUAAAAAAGAUCGGAAGAGCACACGUCU", "aptazyme ON/OFF ratio": 1.19}
{"variant": "GGGUCGCGCUAUUAUAAUCGCGUGGAUAUGGCACGCAAGUUUCUACCGGGCACCGUAAAUGUCCGACUGGAGCCGUUCGGGCGGCUAUAAACAGACCUCAGGCCCGAAGCGUGGCGGCACCUGCCGCCGGUGGUAAAAAAGAUCGGAAGAGCACACGUCU", "aptazyme ON/OFF ratio": 1.16}
{"variant": "GGGUCGCGCUAUGAUAAUCGCGUGGAUAUGGCACGCAAGUUUCUACCGGGCACCGUAAAUGUCCGACUGGAGCCGUUCGGGCGGCUAUAAACAGACCUCAGGCCCGAAGCGUGGCGGCACCUGCCGCCGGUGGUAAAAAAGAUCGGAAGAGCACACGUCU", "aptazyme ON/OFF ratio": 1.09}
{"variant": "GGGUCGCGCUGAGAUAAUCGCGUGGAUAUGGCACGCAAGUUUCUACCGGGCACCGUAAAUGUCCGACUGGAGCCGUUCGGGCGGCUAUAAACAGACCUCAGGCCCGAAGCGUGGCGGCACCUGCCGCCGGUGGUAAAAAAGAUCGGAAGAGCACACGUCU", "aptazyme ON/OFF ratio": 1.18}
{"variant": "GGGUCGCGCUGAAAUAAUCGCGUGGAUAUGGCACGCAAGUUUCUACCGGGCACCGUAAAUGUCCGACUGGAGCCGUUCGGGCGGCUAUAAACAGACCUCAGGCCCGAAGCGUGGCGGCACCUGCCGCCGGUGGUAAAAAAGAUCGGAAGAGCACACGUCU", "aptazyme ON/OFF ratio": 1.14}
{"variant": "GGGUCGCGCUGAUAUAAUCGCGUGGAUAUGGCACGCAAGUUUCUACCGGGCACCGUAAAUGUCCGACUGGAGCCGUUCGGGCGGCUAUAAACAGACCUCAGGCCCGAAGCGUGGCGGCACCUGCCGCCGGUGGUAAAAAAGAUCGGAAGAGCACACGUCU", "aptazyme ON/OFF ratio": 1.14}
{"variant": "GGGUCGCGCUGGCAUAAUCGCGUGGAUAUGGCACGCAAGUUUCUACCGGGCACCGUAAAUGUCCGACUGGAGCCGUUCGGGCGGCUAUAAACAGACCUCAGGCCCGAAGCGUGGCGGCACCUGCCGCCGGUGGUAAAAAAGAUCGGAAGAGCACACGUCU", "aptazyme ON/OFF ratio": 1.19}
{"variant": "GGGUCGCGCUGUCAUAAUCGCGUGGAUAUGGCACGCAAGUUUCUACCGGGCACCGUAAAUGUCCGACUGGAGCCGUUCGGGCGGCUAUAAACAGACCUCAGGCCCGAAGCGUGGCGGCACCUGCCGCCGGUGGUAAAAAAGAUCGGAAGAGCACACGUCU", "aptazyme ON/OFF ratio": 1.23}
{"variant": "GGGUCGCGCUGACAUAAUCGCGUGGAUAUGGCACGCAAGUUUCUACCGGGCACCGUAAAUGUCCGACUGGAGCCGUUCGGGCGGCUAUAAACAGACCUCAGGCCCGAAGCGUGGCGGCACCUGCCGCCGGUGGUAAAAAAGAUCGGAAGAGCACACGUCU", "aptazyme ON/OFF ratio": 1.12}
{"variant": "GGGUCGCGCUGUAAUAAUCGCGUGGAUAUGGCACGCAAGUUUCUACCGGGCACCGUAAAUGUCCGACUGGAGCCGUUCGGGCGGCUAUAAACAGACCUCAGGCCCGAAGCGUGGCGGCACCUGCCGCCGGUGGUAAAAAAGAUCGGAAGAGCACACGUCU", "aptazyme ON/OFF ratio": 1.2}
{"variant": "GGGUCGCGCUGUGAUAAUCGCGUGGAUAUGGCACGCAAGUUUCUACCGGGCACCGUAAAUGUCCGACUGGAGCCGUUCGGGCGGCUAUAAACAGACCUCAGGCCCGAAGCGUGGCGGCACCUGCCGCCGGUGGUAAAAAAGAUCGGAAGAGCACACGUCU", "aptazyme ON/OFF ratio": 1.21}
{"variant": "GGGUCGCGCUGUUAUAAUCGCGUGGAUAUGGCACGCAAGUUUCUACCGGGCACCGUAAAUGUCCGACUGGAGCCGUUCGGGCGGCUAUAAACAGACCUCAGGCCCGAAGCGUGGCGGCACCUGCCGCCGGUGGUAAAAAAGAUCGGAAGAGCACACGUCU", "aptazyme ON/OFF ratio": 1.37}
{"variant": "GGGUCGCGCUCACAUAAUCGCGUGGAUAUGGCACGCAAGUUUCUACCGGGCACCGUAAAUGUCCGACUGGAGCCGUUCGGGCGGCUAUAAACAGACCUCAGGCCCGAAGCGUGGCGGCACCUGCCGCCGGUGGUAAAAAAGAUCGGAAGAGCACACGUCU", "aptazyme ON/OFF ratio": 2.71}
{"variant": "GGGUCGCGCUCUCAUAAUCGCGUGGAUAUGGCACGCAAGUUUCUACCGGGCACCGUAAAUGUCCGACUGGAGCCGUUCGGGCGGCUAUAAACAGACCUCAGGCCCGAAGCGUGGCGGCACCUGCCGCCGGUGGUAAAAAAGAUCGGAAGAGCACACGUCU", "aptazyme ON/OFF ratio": 1.33}
{"variant": "GGGUCGCGCUCGCAUAAUCGCGUGGAUAUGGCACGCAAGUUUCUACCGGGCACCGUAAAUGUCCGACUGGAGCCGUUCGGGCGGCUAUAAACAGACCUCAGGCCCGAAGCGUGGCGGCACCUGCCGCCGGUGGUAAAAAAGAUCGGAAGAGCACACGUCU", "aptazyme ON/OFF ratio": 1.67}
{"variant": "GGGUCGCGCUCCCAUAAUCGCGUGGAUAUGGCACGCAAGUUUCUACCGGGCACCGUAAAUGUCCGACUGGAGCCGUUCGGGCGGCUAUAAACAGACCUCAGGCCCGAAGCGUGGCGGCACCUGCCGCCGGUGGUAAAAAAGAUCGGAAGAGCACACGUCU", "aptazyme ON/OFF ratio": 1.18}
{"variant": "GGGUCGCGCUGCCAUAAUCGCGUGGAUAUGGCACGCAAGUUUCUACCGGGCACCGUAAAUGUCCGACUGGAGCCGUUCGGGCGGCUAUAAACAGACCUCAGGCCCGAAGCGUGGCGGCACCUGCCGCCGGUGGUAAAAAAGAUCGGAAGAGCACACGUCU", "aptazyme ON/OFF ratio": 1.2}
{"variant": "GGGUCGCGCUCAAAUAAUCGCGUGGAUAUGGCACGCAAGUUUCUACCGGGCACCGUAAAUGUCCGACUGGAGCCGUUCGGGCGGCUAUAAACAGACCUCAGGCCCGAAGCGUGGCGGCACCUGCCGCCGGUGGUAAAAAAGAUCGGAAGAGCACACGUCU", "aptazyme ON/OFF ratio": 1.12}
{"variant": "GGGUCGCGCUCAGAUAAUCGCGUGGAUAUGGCACGCAAGUUUCUACCGGGCACCGUAAAUGUCCGACUGGAGCCGUUCGGGCGGCUAUAAACAGACCUCAGGCCCGAAGCGUGGCGGCACCUGCCGCCGGUGGUAAAAAAGAUCGGAAGAGCACACGUCU", "aptazyme ON/OFF ratio": 1.09}
{"variant": "GGGUCGCGCUCAUAUAAUCGCGUGGAUAUGGCACGCAAGUUUCUACCGGGCACCGUAAAUGUCCGACUGGAGCCGUUCGGGCGGCUAUAAACAGACCUCAGGCCCGAAGCGUGGCGGCACCUGCCGCCGGUGGUAAAAAAGAUCGGAAGAGCACACGUCU", "aptazyme ON/OFF ratio": 2.13}
{"variant": "GGGUCGCGCUGGAAUAAUCGCGUGGAUAUGGCACGCAAGUUUCUACCGGGCACCGUAAAUGUCCGACUGGAGCCGUUCGGGCGGCUAUAAACAGACCUCAGGCCCGAAGCGUGGCGGCACCUGCCGCCGGUGGUAAAAAAGAUCGGAAGAGCACACGUCU", "aptazyme ON/OFF ratio": 1.13}
{"variant": "GGGUCGCGCUGGGAUAAUCGCGUGGAUAUGGCACGCAAGUUUCUACCGGGCACCGUAAAUGUCCGACUGGAGCCGUUCGGGCGGCUAUAAACAGACCUCAGGCCCGAAGCGUGGCGGCACCUGCCGCCGGUGGUAAAAAAGAUCGGAAGAGCACACGUCU", "aptazyme ON/OFF ratio": 1.1}
{"variant": "GGGUCGCGCUGGUAUAAUCGCGUGGAUAUGGCACGCAAGUUUCUACCGGGCACCGUAAAUGUCCGACUGGAGCCGUUCGGGCGGCUAUAAACAGACCUCAGGCCCGAAGCGUGGCGGCACCUGCCGCCGGUGGUAAAAAAGAUCGGAAGAGCACACGUCU", "aptazyme ON/OFF ratio": 1.09}
{"variant": "GGGUCGCGCUCGAAUAAUCGCGUGGAUAUGGCACGCAAGUUUCUACCGGGCACCGUAAAUGUCCGACUGGAGCCGUUCGGGCGGCUAUAAACAGACCUCAGGCCCGAAGCGUGGCGGCACCUGCCGCCGGUGGUAAAAAAGAUCGGAAGAGCACACGUCU", "aptazyme ON/OFF ratio": 1.4}
{"variant": "GGGUCGCGCUCGUAUAAUCGCGUGGAUAUGGCACGCAAGUUUCUACCGGGCACCGUAAAUGUCCGACUGGAGCCGUUCGGGCGGCUAUAAACAGACCUCAGGCCCGAAGCGUGGCGGCACCUGCCGCCGGUGGUAAAAAAGAUCGGAAGAGCACACGUCU", "aptazyme ON/OFF ratio": 1.27}
{"variant": "GGGUCGCGCUCGGAUAAUCGCGUGGAUAUGGCACGCAAGUUUCUACCGGGCACCGUAAAUGUCCGACUGGAGCCGUUCGGGCGGCUAUAAACAGACCUCAGGCCCGAAGCGUGGCGGCACCUGCCGCCGGUGGUAAAAAAGAUCGGAAGAGCACACGUCU", "aptazyme ON/OFF ratio": 1.08}
{"variant": "GGGUCGCGCUACAAUAAUCGCGUGGAUAUGGCACGCAAGUUUCUACCGGGCACCGUAAAUGUCCGACUGGAGCCGUUCGGGCGGCUAUAAACAGACCUCAGGCCCGAAGCGUGGCGGCACCUGCCGCCGGUGGUAAAAAAGAUCGGAAGAGCACACGUCU", "aptazyme ON/OFF ratio": 1.17}
{"variant": "GGGUCGCGCUACUAUAAUCGCGUGGAUAUGGCACGCAAGUUUCUACCGGGCACCGUAAAUGUCCGACUGGAGCCGUUCGGGCGGCUAUAAACAGACCUCAGGCCCGAAGCGUGGCGGCACCUGCCGCCGGUGGUAAAAAAGAUCGGAAGAGCACACGUCU", "aptazyme ON/OFF ratio": 1.26}
{"variant": "GGGUCGCGCUACGAUAAUCGCGUGGAUAUGGCACGCAAGUUUCUACCGGGCACCGUAAAUGUCCGACUGGAGCCGUUCGGGCGGCUAUAAACAGACCUCAGGCCCGAAGCGUGGCGGCACCUGCCGCCGGUGGUAAAAAAGAUCGGAAGAGCACACGUCU", "aptazyme ON/OFF ratio": 1.06}
{"variant": "GGGUCGCGCUCCGAUAAUCGCGUGGAUAUGGCACGCAAGUUUCUACCGGGCACCGUAAAUGUCCGACUGGAGCCGUUCGGGCGGCUAUAAACAGACCUCAGGCCCGAAGCGUGGCGGCACCUGCCGCCGGUGGUAAAAAAGAUCGGAAGAGCACACGUCU", "aptazyme ON/OFF ratio": 1.05}
{"variant": "GGGUCGCGCUCCAAUAAUCGCGUGGAUAUGGCACGCAAGUUUCUACCGGGCACCGUAAAUGUCCGACUGGAGCCGUUCGGGCGGCUAUAAACAGACCUCAGGCCCGAAGCGUGGCGGCACCUGCCGCCGGUGGUAAAAAAGAUCGGAAGAGCACACGUCU", "aptazyme ON/OFF ratio": 1.47}
{"variant": "GGGUCGCGCUCCUAUAAUCGCGUGGAUAUGGCACGCAAGUUUCUACCGGGCACCGUAAAUGUCCGACUGGAGCCGUUCGGGCGGCUAUAAACAGACCUCAGGCCCGAAGCGUGGCGGCACCUGCCGCCGGUGGUAAAAAAGAUCGGAAGAGCACACGUCU", "aptazyme ON/OFF ratio": 1.38}
{"variant": "GGGUCGCGCUCUUAUAAUCGCGUGGAUAUGGCACGCAAGUUUCUACCGGGCACCGUAAAUGUCCGACUGGAGCCGUUCGGGCGGCUAUAAACAGACCUCAGGCCCGAAGCGUGGCGGCACCUGCCGCCGGUGGUAAAAAAGAUCGGAAGAGCACACGUCU", "aptazyme ON/OFF ratio": 1.07}
{"variant": "GGGUCGCGCUCUGAUAAUCGCGUGGAUAUGGCACGCAAGUUUCUACCGGGCACCGUAAAUGUCCGACUGGAGCCGUUCGGGCGGCUAUAAACAGACCUCAGGCCCGAAGCGUGGCGGCACCUGCCGCCGGUGGUAAAAAAGAUCGGAAGAGCACACGUCU", "aptazyme ON/OFF ratio": 1.07}
{"variant": "GGGUCGCGCUCUAAUAAUCGCGUGGAUAUGGCACGCAAGUUUCUACCGGGCACCGUAAAUGUCCGACUGGAGCCGUUCGGGCGGCUAUAAACAGACCUCAGGCCCGAAGCGUGGCGGCACCUGCCGCCGGUGGUAAAAAAGAUCGGAAGAGCACACGUCU", "aptazyme ON/OFF ratio": 1.15}
{"variant": "GGGUCGCGCUGCAAUAAUCGCGUGGAUAUGGCACGCAAGUUUCUACCGGGCACCGUAAAUGUCCGACUGGAGCCGUUCGGGCGGCUAUAAACAGACCUCAGGCCCGAAGCGUGGCGGCACCUGCCGCCGGUGGUAAAAAAGAUCGGAAGAGCACACGUCU", "aptazyme ON/OFF ratio": 1.18}
